# Source: patent publication US20210388087A1 (Chugai, published 2021)
# Where a chain is given by its changes, count along the chain named. Names and notes keep the numbering of the source.
# T1: Human CD3eg linker (human)
# T1 construct: Single chain: epsilon and gamma subunits of human CD3 joined by a 29-mer linker, Flag-tag at the C-terminus; also called recombinant human CD3
# T1 chain: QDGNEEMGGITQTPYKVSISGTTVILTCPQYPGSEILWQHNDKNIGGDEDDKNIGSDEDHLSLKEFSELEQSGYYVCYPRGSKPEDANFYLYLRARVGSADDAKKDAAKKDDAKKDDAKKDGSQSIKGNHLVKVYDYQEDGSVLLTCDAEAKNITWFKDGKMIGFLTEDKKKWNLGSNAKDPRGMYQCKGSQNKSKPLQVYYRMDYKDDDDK
# B1: H183/L072 VH N53Y (antibody, name in Kabat numbering, V domains shown)
# VH: QVQLVESGGGLVQPGRSLRLSCAASGFTFSNAWMHWVRQAPGKGLEWVAQIKDKGYAYAAYYAPSVKGRFTISRDDSKNSIYLQMNSLKTEDTAVYYCHYVHYASASTVLPAFGVDAWGQGTTVTVSS
# VL: DIVMTQSPLSLPVTPGEPASISCQASQELVHMNRNTYLHWYQQKPGQAPRLLIYKVSNRFPGVPDRFSGSGSGTDFTLKISRVEAEDVGVYYCAQGTSVPFTFGQGTKLEIK
# B2: H183/L072 VH Q50A (antibody, name in Kabat numbering, V domains shown)
# VH: B1 VH with Q50A, Y56N
# VL: B1 VL
# B3: H183/L072 VH Q50W (antibody, name in Kabat numbering, V domains shown)
# VH: B1 VH with Q50W, Y56N
# VL: B1 VL
# B4: H183/L072 VH Q50H (antibody, name in Kabat numbering, V domains shown)
# VH: B1 VH with Q50H, Y56N
# VL: B1 VL
# B5: H183/L072 VH S30Q (antibody, name in Kabat numbering, V domains shown)
# VH: B1 VH with S30Q, Y56N
# VL: B1 VL
# B6: H183/L072 VH S30I (antibody, name in Kabat numbering, V domains shown)
# VH: B1 VH with S30I, Y56N
# VL: B1 VL
# B7: H183/L072 VH S30G (antibody, name in Kabat numbering, V domains shown)
# VH: B1 VH with S30G, Y56N
# VL: B1 VL
# B8: H183/L072 VH Q50E (antibody, name in Kabat numbering, V domains shown)
# VH: B1 VH with Q50E, Y56N
# VL: B1 VL
# B9: H183/L072 VH S30R (antibody, name in Kabat numbering, V domains shown)
# VH: B1 VH with S30R, Y56N
# VL: B1 VL
# B10: H183/L072 VH P61L (antibody, name in Kabat numbering, V domains shown)
# VH: B1 VH with Y56N, P64L
# VL: B1 VL
# B11: H183/L072 VH P100eM (antibody, name in Kabat numbering, V domains shown)
# VH: B1 VH with Y56N, P111M
# VL: B1 VL
# B12: H183/L072 VH Q50V (antibody, name in Kabat numbering, V domains shown)
# VH: B1 VH with Q50V, Y56N
# VL: B1 VL
# B13: H183/L072 VH Q50R (antibody, name in Kabat numbering, V domains shown)
# VH: B1 VH with Q50R, Y56N
# VL: B1 VL
# B14: H183/L072 VH Q50D (antibody, name in Kabat numbering, V domains shown)
# VH: B1 VH with Q50D, Y56N
# VL: B1 VL
# B15: H183/L072 VH P100eA (antibody, name in Kabat numbering, V domains shown)
# VH: B1 VH with Y56N, P111A
# VL: B1 VL
# B16: H183/L072 VH S30E (antibody, name in Kabat numbering, V domains shown)
# VH: B1 VH with S30E, Y56N
# VL: B1 VL
# B17: H183/L072 VH S30P (antibody, name in Kabat numbering, V domains shown)
# VH: B1 VH with S30P, Y56N
# VL: B1 VL
# B18: H183/L072 VH P61M (antibody, name in Kabat numbering, V domains shown)
# VH: B1 VH with Y56N, P64M
# VL: B1 VL
# B19: H183/L072 VH S30M (antibody, name in Kabat numbering, V domains shown)
# VH: B1 VH with S30M, Y56N
# VL: B1 VL
# B20: H183/L072 VH Q50S (antibody, name in Kabat numbering, V domains shown)
# VH: B1 VH with Q50S, Y56N
# VL: B1 VL
# B21: H183/L072 VH Q50M (antibody, name in Kabat numbering, V domains shown)
# VH: B1 VH with Q50M, Y56N
# VL: B1 VL
# B22: H183/L072 VH Q50K (antibody, name in Kabat numbering, V domains shown)
# VH: B1 VH with Q50K, Y56N
# VL: B1 VL
# B23: H183/L072 VH S30A (antibody, name in Kabat numbering, V domains shown)
# VH: B1 VH with S30A, Y56N
# VL: B1 VL
# B24: H183/L072 VH Q50N (antibody, name in Kabat numbering, V domains shown)
# VH: B1 VH with Q50N, Y56N
# VL: B1 VL
# B25: H183/L072 VH S30N (antibody, name in Kabat numbering, V domains shown)
# VH: B1 VH with S30N, Y56N
# VL: B1 VL
# B26: H183/L072 VH S30L (antibody, name in Kabat numbering, V domains shown)
# VH: B1 VH with S30L, Y56N
# VL: B1 VL
# B27: H183/L072 VH Q50T (antibody, name in Kabat numbering, V domains shown)
# VH: B1 VH with Q50T, Y56N
# VL: B1 VL
# B28: H183/L072 VH S30F (antibody, name in Kabat numbering, V domains shown)
# VH: B1 VH with S30F, Y56N
# VL: B1 VL
# B29: H183/L072 VH S30D (antibody, name in Kabat numbering, V domains shown)
# VH: B1 VH with S30D, Y56N
# VL: B1 VL
# B30: H183/L072 VH S30T (antibody, name in Kabat numbering, V domains shown)
# VH: B1 VH with S30T, Y56N
# VL: B1 VL
# B31: H183/L072 VH Q50Y (antibody, name in Kabat numbering, V domains shown)
# VH: B1 VH with Q50Y, Y56N
# VL: B1 VL
# B32: H183/L072 VH Q50I (antibody, name in Kabat numbering, V domains shown)
# VH: B1 VH with Q50I, Y56N
# VL: B1 VL
# B33: H183/L072 VH S30H (antibody, name in Kabat numbering, V domains shown)
# VH: B1 VH with S30H, Y56N
# VL: B1 VL
# B34: H183/L072 VH Q50F (antibody, name in Kabat numbering, V domains shown)
# VH: B1 VH with Q50F, Y56N
# VL: B1 VL
# B35: H183/L072 VH P61A (antibody, name in Kabat numbering, V domains shown)
# VH: B1 VH with Y56N, P64A
# VL: B1 VL
# B36: H183/L072 VH P61I (antibody, name in Kabat numbering, V domains shown)
# VH: B1 VH with Y56N, P64I
# VL: B1 VL
# B37: H183/L072 VH Q50L (antibody, name in Kabat numbering, V domains shown)
# VH: B1 VH with Q50L, Y56N
# VL: B1 VL
# B38: H183/L072 VH Q50G (antibody, name in Kabat numbering, V domains shown)
# VH: B1 VH with Q50G, Y56N
# VL: B1 VL
# B39: H183/L072 VH P100eL (antibody, name in Kabat numbering, V domains shown)
# VH: B1 VH with Y56N, P111L
# VL: B1 VL
# B40: H183/L072 VH P100eI (antibody, name in Kabat numbering, V domains shown)
# VH: B1 VH with Y56N, P111I
# VL: B1 VL
# B41: H183/L072 VH S30K (antibody, name in Kabat numbering, V domains shown)
# VH: B1 VH with S30K, Y56N
# VL: B1 VL
# B42: H183/L072 VH Q50P (antibody, name in Kabat numbering, V domains shown)
# VH: B1 VH with Q50P, Y56N
# VL: B1 VL
# Target: T1, Human CD3eg linker
# Assay: Biacore SPR, vs template H183/L072
row,Binder,fold change of affinity [fold]
1,B1,0.9
2,B2,0
3,B3,0
4,B4,0.3
5,B5,0.8
6,B6,0.8
7,B7,1.1
8,B8,0
9,B9,0.8
10,B10,1.8
11,B11,1.8
12,B12,0
13,B13,0
14,B14,0
15,B15,1.2
16,B16,0.6
17,B17,0.3
18,B18,1.8
19,B19,0.7
20,B20,0
21,B21,0.1

row,Binder,fold change of affinity [fold]
1,B22,0
2,B23,0.8
3,B24,0
4,B25,0.7
5,B26,0.8
6,B27,0
7,B28,1
8,B29,1
9,B30,1.1
10,B31,0.9
11,B32,0.4
12,B33,1
13,B34,0.3
14,B35,1.9
15,B36,1.8
16,B37,0.2
17,B38,0
18,B39,1.3
19,B40,1.4
20,B41,0.9
21,B42,0
